Measurements from article doi:10.1101/2023.01.10.523494 (bioRxiv, 2023).
Residue numbers refer to the chain shown, from its start.

B1: hRBD1 (antibody, V domains shown)
VH: QVQLVQSGSELKKPGASVKVSCKASGNTLTNHALNWVRQAPGQGLEWMGWINTNTGIPTYAQGFTGRFVFSLDTSVSTAYLQISSLKAEDTAVYYCARVGQTAIAALDDAFDIWGQGTMVTVSS
VL: not shown
B2: hRBD2 (antibody, V domains shown)
VH: B1 VH with N27Y, L29F, T30S, H32Y, L34I, I57H, T74A, S77T, Q101R
VL: not shown
B3: mRBD5 (antibody, V domains shown)
VH: QVQLQQPGAELVKPGASVKVSCKASGYTFTSYWMHWVKQRPGQGLEWIGRIHPSDSDTNYNQKFKGKATLTVDKSSSTAYMQLSSLTSEDSAVYYCAIDWDGDYWGQGTTLTVSS
VL: DIVMSQSPSSLAVSAGEKVTMSCKSSQSLLNSRTRKNYLAWYQQKPGQSPKLLIYWASTRESGVPDRFTGSGSGTDFTLTISSVQAEDLAVYYCKQSYNLWTFGGGTKLEIK
B4: mRBD6 (antibody, V domains shown)
VH: B3 VH with I98M, G102V
VL: B3 VL with W101L, G105A, I111L
B5: mRBD25 (antibody, V domains shown)
VH: QVQLQQSGPELVKPGASVKISCKASGYAFSNSWMNWVKQRPGKGLEWIGRIYPGDGDTNYNGKFKGKATLTADKSSSTAYMQLSSLTSEDSAVYFCANYYGDYWGQGTTLTVSS
VL: QIVLTQSPALMSASPGEKVTMTCSASSSVSYMYWYQQKPRSSPKPWIYLTSNLASGVPARFSGSGSGTSYSLTISSMEAEDAATYYCQQWSSNPYTFGGGTKLEIK
B6: mRBD24 (antibody, V domains shown)
VH: EVQLQQSGPDLVKPGASVKISCKASGYTFTDYYMNWVKQSHGKSLEWIGDINPNNGGTYYNQKFKGKATLTVDKSSSTAYMELRSLTSEDSAVYYCARQLRRWGQGTLVTVSA
VL: not shown
B7: hRBD6 (antibody, V domains shown)
VH: QVQLQQWGAGLLKPSETLSLSCAVYGGAFSDYYWSWIRQPPGKGLEWIGEIDLSGSTNYNPSLKSRVTISVDTSKNQFSLKLISVTAADTAVYYCARTHLIGYCSGGSCYSGPDPSNWFDPWGQGTLVTVSS
VL: SSELTQDPAVSVALGQTVRITCQGDSLRSYYASWYQQKPGQAPVLVIYGKNNRPSGIPDRFSGSSSGNTASLTITGAQAEDEADYYCNSRDTSGHHPVFGGGTKLTVL
B8: mRBD18 (antibody, V domains shown)
VH: QIQLVQSGPELKKPGETVKISCKASGYTFTDYPMHWVQQAPGKGFKWMGMIYTDTGEPTYAEEFKGRFAFSLETSASTAYLQINNLKNEDTATYFCVRWAGYFDYWGQGTTLTVSS
VL: DIVLTQSPASLAVSLGQRATISCRASESVDSYGNSFMDWYQQKPGQPPKLLIYRASNLESGIPARFSGSGSRTDFTLIINPVEADDVATYYCQQSNEHPLTFGAGTKLELK
B9: mRBD7 (antibody, V domains shown)
VH: QVQLKQSGAELVRPGASVKLSCKASGYTFTDYYINWVKQRPGQGLEWIARIYPGSGNTYYNEKFKGKATLTAEKSSSTAYMQLSSLTSEDSAVYFCARYPLYDYDEEDYFDYWGQGTTLTVSS
VL: DIQMTQTTSSLSASLGDRVTISCRASQDISNYLNWYQQKPDGTVKLLIYYTSRLHSGVPSRFSGSGSGTDYSLTISNLEQEDIATYFCQQGNTLPYTFGGGTKLEIK
B10: mRBD17 (antibody, V domains shown)
VH: QIQLVQSGPELKKPGETVKISCKASGYTLTEYPMHWVKQAPGKGFKWMGMIYTDTGEPTYAEEFKGRFAFSLETSASTAYLQINNLKNEDTATYFCVRAGPSFAMDYWGQGTSVTVSS
VL: B9 VL with I83F
B11: mRBD12 (antibody, V domains shown)
VH: QVQLQQSGAELARPGASVKLSCKASGYTFTSYGISWVKQRTGQGLEWIGEIYPRSGNTYYNEKFKGKATLTADKSSSTAYMEVRSLTSEDSAVYFCAREGGYGYVMDYWGQGTSVTVSS
VL: B9 VL with L73F, Y96W
B12: mRBD10 (antibody, V domains shown)
VH: QVQLKQSGAELVRPGASVKLSCKASGYTFTDYYINWVKQRPGQGLEWIARIYPGSGNTYYNEKFKGKATLTAEKSSSTAYMQLSSLTSEDSAVYFCARDYGSSYVDYFDYWGQGTTLTVSS
VL: B9 VL with Y96L, G100A, I106L
B13: hRBD10 (antibody, V domains shown)
VH: EVQLVESGGGLVQPGGSLRLSCSASGFTFTTYNMNWVRQAPGKGLEWVSYISSSSSTIYYADSVEGRFTISRDNAKNSLYLQMNSLRDEDTAVYYCARGVGATSYYYHGMDVWGQGTTVSVSS
VL: DIQMTQSPSSLSASVGDRVTITCRASQSIYSYLNWYKQKAGKAPKLLIYAASSLQSGVPSRFSGSGSGTDFTLTIISLQPEDFATYYCQQSYSTPPTFGQGTKVEIK
B14: mRBD11 (antibody, V domains shown)
VH: QVQLQQSGAELARPGASVKLSCKASGYTFISNGISWVKQRTGQGLEWIGEIYPRNGNTYYNEKFKGKATLTADKSSSTAYMELRSLTSEDSAVFFCARDYYYGNFDYWGQGTTLTVSS
VL: NIVLTQSPASLAVSLGQRATISCRASESVDSYGNSFMHWYQQKPGQPPKLLIYLASNLESGVPARFSGSGSRTDFTLTIDPVEADDAATYYCQQNNEDPYTFGGGTKLEIK
B15: mRBD19 (antibody, V domains shown)
VH: B10 VH with L29F, A99G, S102Y, F103Y
VL: B14 VL with Y100W
B16: mRBD22 (antibody, V domains shown)
VH: QIQLVQSGPELKKPGETVKISCKASGYTFTEYPMHWVKQAPGKGFKWMGMIYTDTGEPTYAEEFKGRFAFSLETSASTAYLQINNLKNEDTATYFCVRGGYYYFDYWGQGTTLTVSS
VL: B14 VL with Y100W
B17: mRBD20 (antibody, V domains shown)
VH: B10 VH with F103Y
VL: B14 VL with V13M, Q42L
B18: mRBD15 (antibody, V domains shown)
VH: B10 VH with E10D, L29F, K46Q, A92S, F103Y
VL: B14 VL with L58V, Q93H, N95I
B19: mRBD21 (antibody, V domains shown)
VH: B10 VH with L29F, E31K, F68C, A99W, P101G, F103Y, M105L
VL: B8 VL with D38H, I78T, H98D
B20: mRBD16 (antibody, V domains shown)
VH: B10 VH
VL: B14 VL
B21: hRBD13 (antibody, V domains shown)
VH: QVQLVESGGGVVQPGRSLRLSCAVSGFTFRNYGMDWVRQAPGKGLEWVAVISYDGSNKYYADSVKGRFTISRDNSKNTLFLHLNSLRAEDTAVYYCAKAGGGPYCGGGNCYMHYFDYWGQGTQVTVSS
VL: DIQMTQSPSSLSASVGDRVTITCQASQDINNYLNWYQQKPGKAPKLLIYDASNLETGVPLRFSGSGSATHFSFTISSLQPEDIATYYCQQYDHLPCTFGQGTKLEIR
B22: mRBD14 (antibody, V domains shown)
VH: EVKLVESGGGLVQPGGSLSLSCAASGFTFTDYYMSWVRQPPGKALEWLGFIRNKANGYTTEYSASVKGRFTISRDNSQSILYLQMNALRAEDSATYYCARYIRTGWYFDVWGTGTTVTVSS
VL: DIVMTQSQKFMSTSVRDRVSITCKASQNVRTAVAWYQQKPGQSPKALIYLASNRHTGVPDRFTGSGSGTDFTLTISNVQSEDLADYFCLQHWNYPWTFGGGTKLEIK
B23: hRBD11 (antibody, V domains shown)
VH: QVQLQESGPGLVKPSQTLSLTCTVSGGSISSGGYYWSWIRQHPGKGLEWIGYIFYSGSTYYNPSLKSRVIISVDTSKNQFSLKLSSVTAADTAAYYCARVNRVYGSGSYSLDPWGQGTLVTVSS
VL: QSALTQPASVSGSPGQSITISCTGTSRDVGDYDYVSWYQQHPGKAPKLMIYEGSERPSGVSNRFSGSKSGNTASLTISGLQAEDEADYYCCSYTGSSTSFLFGTGTKVTVL
B24: mRBD3 (antibody, V domains shown)
VH: QVQLQQPGAELVMPGTSVKLSCKASGYIFTSYWMHWVKQRPGQGLEWIGEIDPSDNYTNYNQKFKGKSTLTVDKSSSTAYMQLSSLTSEDSAVYYCARGGLYYYGSSYDAMDYWGQGTSVTVSS
VL: DIVMTQAAPSVPVTPGESVSISCRSSKSLLHSNGNTYLYWFLQRPGQSPQLLIYRMSNLASGVPDRFSGSGSGTAFTLRISRVEAEDVGAYYCMQHLEYPFTFGSGTKLEIK
B25: mRBD4 (antibody, V domains shown)
VH: QVQLQQPGAELVMPGASVKLSCKASGYTFTSYWMHWVKQRPGQGLEWIGEIDPSDSYTNYNQKFKDKSTLTVDKSSSTAYMQLSSLTSEDSAVYYCARGGVYYYGSSHYFDYWGQGTTLTVSS
VL: B24 VL with L51F, A90V
B26: mRBD23 (antibody, V domains shown)
VH: QVQLQQPGAELVRPGSSVKLSCKASGYTFTSYWMHWVKQRPIQGLEWIGNIDPSDSETHYNQKFKDKATLTVDKSSSTAYMQLSSLTSEDSAVYYCTRPGSLRSRGWYFDVWGTGTTVTVSS
VL: B24 VL with A90V, F101Y, S105G

Biological target: receptor binding domain (RBD) of the wildtype (WT) SARS-CoV-2 spike protein (SARS-CoV-2, wildtype (sequence as in …))

Binder	binding result
B1	binds
B2	binds
B3	binds
B4	binds
B5	binds
B6	binds
B7	binds
B8	binds
B9	binds
B10	binds
B11	binds
B12	binds
B13	binds
B14	binds
B15	binds
B16	binds
B17	binds
B18	binds
B19	binds
B20	binds
B21	binds
B22	binds
B23	binds
B24	binds
B25	binds
B26	binds
